Assays:
[1] = biological target: PHD3 (EMSA) (UniProt Q9H6Z9 1-239); test: EMSA; Pull-down: RNA folded in 10 mM Tris pH 7, 0.1 M KCl, 10 mM MgCl2, then 5 µg RNA with 5 mg lysate in Pierce IP lysis buffer, 1 h, room temperature; EMSA: LightShift chemiluminescent RNA EMSA kit, buffer not given; details: protein: recombinant, label: biotin-16-UTP
[2] = biological target: PKM2 (EMSA) (UniProt P14618 1-531); test: as above; details: protein: recombinant; label: biotin-16-UTP; two predicted hairpins (nt 4-19, nt 30-57)
Sequence of PKM2 (EMSA) (P14618 whole entry): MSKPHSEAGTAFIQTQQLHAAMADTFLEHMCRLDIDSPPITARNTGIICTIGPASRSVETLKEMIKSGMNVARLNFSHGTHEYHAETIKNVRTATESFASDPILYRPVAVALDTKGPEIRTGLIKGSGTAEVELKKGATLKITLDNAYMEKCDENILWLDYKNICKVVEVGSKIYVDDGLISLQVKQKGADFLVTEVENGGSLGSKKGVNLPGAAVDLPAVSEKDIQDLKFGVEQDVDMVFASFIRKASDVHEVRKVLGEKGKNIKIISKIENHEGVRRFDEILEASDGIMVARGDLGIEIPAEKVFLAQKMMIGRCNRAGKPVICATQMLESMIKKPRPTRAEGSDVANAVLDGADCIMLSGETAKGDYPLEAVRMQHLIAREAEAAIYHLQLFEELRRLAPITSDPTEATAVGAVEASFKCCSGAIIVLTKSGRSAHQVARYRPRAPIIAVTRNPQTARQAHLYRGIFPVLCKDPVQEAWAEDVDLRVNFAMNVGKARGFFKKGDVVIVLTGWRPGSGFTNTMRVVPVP

Sequence of PHD3 (EMSA) (Q9H6Z9 whole entry): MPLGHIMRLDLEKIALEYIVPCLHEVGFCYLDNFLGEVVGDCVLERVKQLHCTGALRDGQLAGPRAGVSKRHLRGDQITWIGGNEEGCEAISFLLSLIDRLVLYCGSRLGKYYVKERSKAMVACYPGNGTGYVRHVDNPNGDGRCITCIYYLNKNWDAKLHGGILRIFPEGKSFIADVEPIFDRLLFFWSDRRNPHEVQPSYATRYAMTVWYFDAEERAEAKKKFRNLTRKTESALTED

B1: HIFAL nt 501-560 (structured_RNA)
RNA: UGCAUGGUGCUUACUAAUAACACAGUGGUAUUCUAAACAUUUUUCACCUAUUAUUUAAUC
B1: binds ([1]; predicted hairpin (nt 506-532)).

UGCAUGUCUAAACAUUUUUCACCUAUUAUUUAAUC (ssRNA) [HIFAL 501-560 ΔhC (mC)]: no binding [1].

B2: HIFAL nt 1-60 (structured_RNA)
RNA: UCAUGUAGCGCCAGCCACACCAGGAACAGAAGGGUGCCGGGUACCUUCCGCAUGCUUGGU
B2: binds [2].

From publication PMC7910558, “The HIF-1α antisense long non-coding RNA drives a positive feedback loop of HIF-1α mediated transactivation and glycolysis”
